The values that follow come from PMC10657439 (Cell Death and Differentiation, 2023).

Positions count from the first letter of the chain named. Numbers in names are those of the source. Some results are limits rather than exact numbers.

By Kd is commonly meant a measure of binding affinity in units of concentration. One may read the stoichiometry N as the number of molecules, sites or subunits per partner or assembly. As usually defined, the koff is a measure of how fast the partners let go of each other. A low value points to slow dissociation.

The target in data set [1] is Fas (CD95), endogenous on human cells (human (endogenous in OVCAR3, Jurkat, PBMC-derived T cells)) (UniProt P25445).
The target of data set [2] is Fas R86A mutant tested for E09 binding (human) (UniProt P25445). Briefly: ELISA. On the technique in general: ELISA stands for enzyme-linked immunosorbent assay.
Data set [3] addresses His-Fas (His-tagged human Fas extracellular domain, wild type) (human). Briefly: ELISA.
Another data set has as its target His-Fas^R87A (human). Briefly: ELISA.
Data set [4] concerns the target T1, Fc-tagged Fas (recombinant extracellular domain of Fas with a C-terminal Fc) (human, UniProt P25445 26-173).
T1 construct: human Fas (CD95) extracellular domain; also called Fas-IgG1 Fc; IgG4-Fc-tagged Fas; source: FreeStyle CHO-S cells, purified (protein A columns); not shown: Fc (IgG4 in the methods, IgG1 in the results), C-terminal, kept
T1 sequence (looked up): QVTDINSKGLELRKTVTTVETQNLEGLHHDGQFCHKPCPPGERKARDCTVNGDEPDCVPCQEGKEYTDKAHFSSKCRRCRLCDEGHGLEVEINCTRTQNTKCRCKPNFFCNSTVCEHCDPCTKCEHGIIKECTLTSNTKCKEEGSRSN
As to the kind of experiment: ELISA; Fc-tagged Fas (2 μg/ml) coated on 96-well plates; His-tagged FasL (single or tandem) in 2-fold dilutions from 50 to 0.048 nM, 1 h at 37 °C. Conditions: both partners purified.

Data set [5] deals with the molecule itself. As to the kind of experiment: non-reducing, partially denaturing SDS-PAGE with anti-His immunoblot; purified His-tagged FasL added to Jurkat cells in culture wells, 30 min; soup and total lysates together; FasL trimer formation.
Data set [6] deals with T2, His-Fas (His-tagged human Fas extracellular domain, wild type) (human).
T2 chain: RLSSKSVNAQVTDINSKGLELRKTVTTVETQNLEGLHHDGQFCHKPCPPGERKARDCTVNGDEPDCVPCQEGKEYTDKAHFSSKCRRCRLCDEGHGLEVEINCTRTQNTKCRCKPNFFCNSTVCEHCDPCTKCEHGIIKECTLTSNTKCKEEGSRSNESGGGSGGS
As to the kind of experiment: BLI.

In data set [7] the target is T2, His-Fas (His-tagged human Fas …). Briefly: BLI. A general note: In BLI a coated tip is dipped into the sample, and binding shifts an interference pattern.

For the molecule “His_FasL^TL1A (His-tagged FasL with the cognate region of TL1A, DTYGIV to HELGLA) (ligand)”, in data set [1], the cytotoxic activity against T cells (cell survival assay, Fig. 3F, G) is > 70%.

As for CH11 IgG1, the Kd in data set [2] is 2.02 nM; in data set [3], 0.983 nM; with His-Fas^R87A (human) it was 2.2 nM.

B1: His_FasL^WT (N-terminal His-tagged human FasL, wild type) (ligand)
chain: GGSPSPPPEKKELRKVAHLTGKSNSRSMPLEWEDTYGIVLLSGVKYKKGGLVINETGLYFVYSKVYFRGQSCNNLPLSHKVYMRNSKYPQDLVMMEGKMMSYCTTGQMWARSSYLGAVFNLTSADHLYVNVSELSLVNFEESQTFFGLYKL
notes: linker between the His tag and FasL; also called WT FasL; His-tagged FasL; source: FreeStyle CHO-S cells, transfected, purified (Ni-Sepharose HisTrap); not shown: His7, N-terminal, kept
Consider B1, for which, in data set [4], the binding result was “binds”. Besides, the “stoichiometry N” value in data set [5] was 3.

B2: His_FasL^R156G (ALPS mutation) (ligand, human)
chain: B1 chain with R26G
notes: linker between the His tag and FasL; source: FreeStyle CHO-S cells, transfected, purified (Ni-Sepharose HisTrap); not shown: His7, N-terminal, kept
In the case of B2, in data set [4], the binding result is “binds”.

B3: His_FasL^D164A (printed as His_FasL^D163A in Table 1) (ligand, human)
chain: B1 chain with D34A
notes: as for B2
For the molecule B3, the binding result in data set [4] was “binds”.

B4: His_FasL^E163A (ligand, human)
chain: B1 chain with E33A
notes: linker between the His tag and FasL; also called A163; source: FreeStyle CHO-S cells, transfected, purified (Ni-Sepharose HisTrap); not shown: His7, N-terminal, kept
For the molecule B4, the “stoichiometry N” value in data set [5] was 3.

B5: His_FasL^E271A (ligand, human)
chain: B1 chain with E141A
notes: linker between the His tag and FasL; also called A271; source: FreeStyle CHO-S cells, transfected, purified (Ni-Sepharose HisTrap); not shown: His7, N-terminal, kept
As to B5, the “stoichiometry N” value in data set [5] turned out to be 3.

B6: His_FasL^E270A (ligand, human)
chain: B1 chain with E140A
notes: as for B2
With B6, the binding result in data set [4] was “binds”.

B7: His_FasL^WT-A247E (tandem: wild-type FasL unit and A247E unit) (ligand, human)
chain: GGSPSPPPEKKELRKVAHLTGKSNSRSMPLEWEDTYGIVLLSGVKYKKGGLVINETGLYFVYSKVYFRGQSCNNLPLSHKVYMRNSKYPQDLVMMEGKMMSYCTTGQMWARSSYLGAVFNLTSADHLYVNVSELSLVNFEESQTFFGLYKLGGGSGGGSGGGSPSPPPEKKELRKVAHLTGKSNSRSMPLEWEDTYGIVLLSGVKYKKGGLVINETGLYFVYSKVYFRGQSCNNLPLSHKVYMRNSKYPQDLVMMEGKMMSYCTTGQMWARSSYLGEVFNLTSADHLYVNVSELSLVNFEESQTFFGLYKL
notes: linker between the His tag and the first FasL unit; linker between the two FasL units; source: CHO expression system, purified (HisTrap Ni Sepharose); not shown: His7, N-terminal, kept
For B7, the binding result in data set [4] is given as “binds”.

B8: His_FasL^WT-G277S (tandem: wild-type FasL unit and G277S unit) (ligand, human)
chain: B7 chain with E277A, G307S
notes: as for B7
As to B8, the binding result in data set [4] is given as “binds”.

B9: E09 IgG1 (preclinical Fas agonist antibody) (antibody, V domains shown)
VH: QLQLQESGPGLVKPSETLSLTCTVSGASISANSYYGVWVRQSPGKGLEWVGSIAYRGNSNSGSTYYNPSLKSRATVSVDTSKNQVSLRLTSVTAADTALYYCARRQLLDDGTGYQWAAFDVWGQGTMVTVSS
VL: QSVLTQPPSVSEAPRQTVTISCSGNSFNIGRYPVNWYQQLPGKAPKLLIYYNNLRFSGVSDRFSGSKSGTSASLAIRDLLSEDEADYYCSTWDDTLKGWVFGGGTKVTVLG
Take B9: the Kd in data set [6] worked out at 0.377 nM.

B10: DB-FasL (protein)
chain: PSPPPEKKELRKVAHLTGKSNSRSMPLEWEDTYGIVLLSGVKYKKGGLVINETGLYFVYSKVYFRGQSCNNLPLSHKVYMRNSKYPQDLVMMEGKMMSYCTTGQMWARSSYLGAVFNLTSADHLYVNVSELSLVNFEESQTFFGLYKL
modifications: Wild-type FasL ectodomain fused to the C-terminus (CH3) of the idarucizumab (anti-dabigatran) IgG1 heavy chain, one FasL per heavy chain. The IgG carrier and linker are left out because they do not bind Fas. Limits are taken from the sister constructs His-FasL WT and E09-FasL WT printed in the tables (PSPPPEKKEL...GLYKL).
Consider B10, for which the Kd in data set [6] came out at 60.6 nM. The molecule further yielded an off-rate (koff) in data set [7] of 0.0049 s⁻¹.
